This data set concerns the molecule itself. Briefly: mass photometry; 2 μl (50 nM) protein solution added into 18 μl protein elution buffer; movie recorded for 1 min; Refeyn 2MP mass photometer, NativeMark size marker.

B1: RAD51 paralog complex RAD51B-RAD51C-RAD51D-XRCC2 (BCDX2) (complex, human)
chain 1: MGSKKLKRVGLSQELCDRLSRHQILTCQDFLCLSPLELMKVTGLSYRGVHELLCMVSRACAPKMQTAYGIKAQRSADFSPAFLSTTLSALDEALHGGVACGSLTEITGPPGCGKTQFCIMMSILATLPTNMGGLEGAVVYIDTESAFSAERLVEIAESRFPRYFNTEEKLLLTSSKVHLYRELTCDEVLQRIESLEEEIISKGIKLVILDSVASVVRKEFDAQLQGNLKERNKFLAREASSLKYLAEEFSIPVILTNQITTHLSGALASQADLVSPADDLSLSEGTSGSSCVIAALGNTWSHSVNTRLILQYLDSERRQILIAKSPLAPFTSFVYTIKEEGLVLQETTFCSVTQAELNWAPEILPPQPPEQLGLQMCHHTQLIF
chain 2: MRGKTFRFEMQRDLVSFPLSPAVRVKLVSAGFQTAEELLEVKPSELSKEVGISKAEALETLQIIRRECLTNKPRYAGTSESHKKCTALELLEQEHTQGFIITFCSALDDILGGGVPLMKTTEICGAPGVGKTQLCMQLAVDVQIPECFGGVAGEAVFIDTEGSFMVDRVVDLATACIQHLQLIAEKHKGEEHRKALEDFTLDNILSHIYYFRCRDYTELLAQVYLLPDFLSEHSKVRLVIVDGIAFPFRHDLDDLSLRTRLLNGLAQQMISLANNHRLAVILTNQMTTKIDRNQALLVPALGESWGHAATIRLIFHWDRKQRLATLYKSPSQKECTVLFQIKPQGFRDTVVTSACSLQTEGSLSTRKRSRDPEEEL
chain 3: MGVLRVGLCPGLTEEMIQLLRSHRIKTVVDLVSADLEEVAQKCGLSYKALVALRRVLLAQFSAFPVNGADLYEELKTSTAILSTGIGSLDKLLDAGLYTGEVTEIVGGPGSGKTQVCLCMAANVAHGLQQNVLYVDSNGGLTASRLLQLLQAKTQDEEEQAEALRRIQVVHAFDIFQMLDVLQELRGTVAQQVTGSSGTVKVVVVDSVTAVVSPLLGGQQREGLALMMQLARELKTLARDLGMAVVVTNHITRDRDSGRLKPALGRSWSFVPSTRILLDTIEGAGASGGRRMACLAKSSRQPTGFQEMVDIGTWGTSEQSATLQGDQT
chain 4: MCSAFHRAESGTELLARLEGRSSLKEIEPNLFADEDSPVHGDILEFHGPEGTGKTEMLYHLTARCILPKSEGGLEVEVLFIDTDYHFDMLRLVTILEHRLSQSSEEIIKYCLGRFFLVYCSSSTHLLLTLYSLESMFCSHPSLCLLILDSLSAFYWIDRVNGGESVNLQESTLRKCSQCLEKLVNDYRLVLFATTQTIMQKASSSSEEPSHASRRLCDVDIDYRPYLCKAWQQLVKHRMFFSKQDDSQSSNQFSLVSRCLKSNSLKKHFFIIGESGVEFC
notes: human RAD51B, codon-optimized for Sf9, from pFB-FLAG-RAD51Bco-10xHis-RAD51Cco; human RAD51C, codon-optimized for Sf9, from pFB-FLAG-RAD51Bco-10xHis-RAD51Cco; Expressed as a heterotetramer; by mass photometry the preparation was consistent with a dimer of the heterotetramer; also called BCDX2 complex; FLAG-BCDX2 complex; source: Sf9, co-infected with two baculoviruses, purified (Ni-NTA, then …)
B1: the “stoichiometry N” value came to 2.

By stoichiometry N is commonly meant the number of molecules, sites or subunits per partner or assembly.

(Values after paper PMC9371921, “Strand annealing and motor driven activities of SMARCAL1 and ZRANB3 are stimulated by RAD51 and the paralog complex” (Nucleic Acids Research, 2022).)
